Assay results reported in patent publication US20250333496A1 (Novo Nordisk, published 2025).

Columns and labels:
[1] = target: T1, human IL-6 (mature hIL-6) (human, UniProt P05231 30-212); assay: cell-based or functional assay
[2] = target: T1, human IL-6 (mature hIL-6); assay: SPR (format not stated)
[3] = target: T1, human IL-6 (mature hIL-6); assay: cell-based or functional assay; remark: listed apart in the source
[4] = target: T2, recombinant human HPC4-tagged IL-6 (human, UniProt P05231 30-212); assay: SPR, HPC4-IL-6 captured on anti-HPC4 antibody, VHH injected, 25 C, 1:1 model
T2 construct: captured on an anti-HPC4 antibody in SPR; also called HPC4-human IL6
T2 sequence (P05231 other isoform, or with tags, fused parts or gaps limits assumed): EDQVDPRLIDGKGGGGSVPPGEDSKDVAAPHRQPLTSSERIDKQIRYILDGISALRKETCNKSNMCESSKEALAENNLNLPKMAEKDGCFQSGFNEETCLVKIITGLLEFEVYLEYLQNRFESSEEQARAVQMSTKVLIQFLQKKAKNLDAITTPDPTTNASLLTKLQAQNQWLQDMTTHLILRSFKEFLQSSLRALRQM
Experimental: Binding of purified anti-IL-6 VHHs to recombinant human HPC4-tagged IL-6 (SEQ ID NO: 98) was probed by Surface Plasmon Resonance (SPR).
IL-6 was captured at a flow rate of 10 μL/min for 30 seconds.
Subsequently, concentration series of VHH polypeptides according to Table 33 were injected at a flow rate of 50 μL/min for 200 seconds to allow for binding to […] followed by 600 seconds running buffer (10 mM HEPES, 150 mM NaCl, 5 mM CaCl₂, 0.05% (v/v) Surfactant P20, 1 mg/mL bovine serum albumin, pH 7.4) injection allowing dissociation from IL-6. The running buffer was also used for dilution of anti-IL-6 VHHs and IL-6. Regeneration of the chip was achieved using a regeneration buffer consisting of 50 mM EDTA in running buffer without CaCl₂, 30 seconds contact time, and a 30 μL/min flow rate applied twice to the surface. The binding data were collected at 25° C. at either a Biacore instrument (Cytiva AB, Uppsala) or a Bruker SPR32 (Bruker Daltonics). Data were analysed according to a 1:1 model using either BiaEvaluation or Biacore Insight Evaluation (Cytiva AB, Uppsala) or Bruker Analyser (Bruker Daltonics).

[5] = target: T1, human IL-6 (mature hIL-6); assay: cell-based or functional assay; remark: listed apart in the source
[6] = target: T1, human IL-6 (mature hIL-6); assay: cell-based or functional assay; remark: listed apart in the source

T1 sequence (P05231 30-212): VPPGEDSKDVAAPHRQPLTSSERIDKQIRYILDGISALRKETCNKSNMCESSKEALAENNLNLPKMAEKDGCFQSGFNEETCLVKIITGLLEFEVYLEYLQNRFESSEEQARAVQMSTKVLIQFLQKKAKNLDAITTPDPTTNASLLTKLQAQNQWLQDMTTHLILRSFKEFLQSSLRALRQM

B1: Polypeptide_10 (VHH)
VHH: QVQLQESGGGLVQAGGSLRLSCTVSGRTFSTYAMGWFRQAPGKEREFVADINWNSDNIWYADSVKGRFTISRDNAKNVMYLQMNSLKPEDTAVYYCAADSYGVGGGKEEYYDSWGQGTQVTVSS
notes: VHH_2.10 with C-terminal His tag extension E1; also called [VHH_2.10]-E1
- Reporter gene-assay [pM] [1]: 114 pM
- Kd [2]: 1030 pM

B2: Polypeptide_4 (VHH)
VHH: QVQLQESGGGLVQAGGSLRLSCTVSGRTFSTYAMGWFRQAPGKEREFVADINWNSDNLWYADSVKGRFTISRDNAKNTMYLQMNSLKPEDTAVYYCAVDSYGVGGGKPEYYDSWGQGTQVTVSS
notes: VHH_2.4 with C-terminal His tag extension E1; also called [VHH_2.4]-E1
- Reporter gene-assay [pM] [1]: 198 pM
- Kd [2]: 1460 pM

B3: Polypeptide_17 (VHH)
VHH: QVQLVESGGGLVQAGGSLRLSCTVSGRTFSTYAMGWFRQAPGKEREFVADINWNSDNIWYADSVKGRFTISRDNAKNVMYLQMNSLKPEDTAVYYCAADSYGVGGGKEEYYDSWGQGTQVTVSS
notes: VHH_2.17 with C-terminal His tag extension E1; also called [VHH_2.17]-E1
- Reporter gene-assay [pM] [1]: 84.1 pM
- Kd [2]: 257 pM

B4: Polypeptide_13 (VHH)
VHH: EVQLVESGGGLVQAGGPLRLSCTVSGRTFSTYAMGWFRQAPGKEREFVADINWNSDNIWYADSVKGRFTISRDNAKNVMYLQMNSLKPEDTAVYYCAADSYGVGGGKEEYYDSWGQGTQVTVSS
notes: VHH_2.13 with C-terminal His tag extension E1; also called [VHH_2.13]-E1
- Reporter gene-assay [pM] [1]: 80.9 pM
- Kd [2]: 1 pM

B5: Polypeptide_34 (VHH)
VHH: EVQLVESGGGLVQAGGSLRLSCTASGGTFSEYAMAWFRQAPGKEREFVTDIGESGGTWYADSVKGRFTISRDNAKNTVYLQMNSLRPEDTAVYYCAADSYGVGGGAERYYDSWGQGTQVTVSS
notes: VHH_1.8 with C-terminal His tag extension E1; also called [VHH_1.8]-E1
- IC 50 (nM), reporter gene assay, 0% HSA [3]: 0.066 nM
- IC 50 (nM), reporter gene assay, 1% HSA [3]: 0.046 nM
- Reporter gene-assay [pM] [1]: 43.6 pM
- Kd [2]: ~13.6 pM
- Kd [4]: 13.6 pM
- kon [4]: 2.88e+07 M⁻¹ s⁻¹

B6: Polypeptide_15 (VHH)
VHH: QVQLQESGGGLVQAGGSLRLSCTASGGTFSEYAMAWFRQAPGKEREFVTDIGESGGTWYADSVKGRFTISRDNAKNTVYLQMNSLRPEDTAVYYCAADSYGVGGGAERYYDSWGQGTQVTVSS
notes: VHH_2.15 with C-terminal His tag extension E1; also called [VHH_2.15]-E1
- Reporter gene-assay [pM] [1]: 16.8 pM
- Kd [2]: 1 pM

B7: Polypeptide_35 (VHH)
VHH: QVQLVESGGGLVQAGGSLRLSCTASGGTFGEYAMAWFRQAPGKEREFVTDIGESGGTWYADSVKGRFTISRDNAKNTVYLQMNSLRPEDTAVYYCAADSYGVGGGAERYYDSWGQGTQVTVSS
notes: VHH_1.10 with C-terminal His tag extension E1; also called [VHH_1.10]-E1
- Reporter gene-assay [pM] [1]: 24.6 pM
- Kd [2]: 1 pM

B8: Polypeptide_1 (VHH)
VHH: QVQLVESGGDLVQPGGSLRLSCTTSGRTFSSYAMGWFRQAPGKEREFVADIGENADNRWYAHSVKGRFTISRDNAKNTVYLQMNSLKPEDTAVYYCAADRYGVGGGAQGYYDSWGQGTQVTVSS
notes: VHH_2.1 with C-terminal His tag extension E1; also called [VHH_2.1]-E1
- Reporter gene-assay [pM] [1]: 47.4 pM
- Kd [2]: 627 pM

B9: Polypeptide_7 (VHH)
VHH: EVQLVESGGRWVQPGASLRLSCTTSGRTFSSYAMGWFRQAPGKEREFVADIGENADNRWYAHSVKGRFTISRDNAKNTVYLQMNSLKPEDTAVYYCAADRYGVGGGAQGYYDSWGQGTQVTVSS
notes: VHH_2.7 with C-terminal His tag extension E1; also called [VHH_2.7]-E1
- Reporter gene-assay [pM] [1]: 42.1 pM
- Kd [2]: 631 pM

B10: Polypeptide_19 (VHH)
VHH: QLQLVESGGGWVQPGGSLKLSCTTSGRTFSSYAVGWFRQAPGKEREFVADIGENADNTWYAHSVKGRFTISRDNAKNTVYLQMNSLKPEDTAVYYCAADSYGVGGGAQGYYDSWGQGTQVTVSS
notes: VHH_1.11 with C-terminal His tag extension E1; also called [VHH_1.11]-E1
- IC50 (nM), STAT3-luc reporter gene assay [5]: 0.185 nM
- Relative IC50 to Reference Polypeptide_29 [5]: 5.4 fold
- IC 50 (nM), reporter gene assay, 0% HSA [3]: 0.117 nM
- IC 50 (nM), reporter gene assay, 1% HSA [3]: 0.064 nM
- Reporter gene-assay [pM] [1]: 40.6 pM
- Kd [2]: 1 pM

B11: Polypeptide_33 (VHH)
VHH: EVQLVESGGGLVQPGGSLRLSCTTSGRTFSSYAVGWFRQAPGKEREFVADIGENADNTWYAHSVKGRFTISRDNAKNTVYLQMNSLKPEDTAVYYCAADSYGVGGGAQGYYDSWGQGTQVTVSS
notes: VHH_1.9 with C-terminal His tag extension E1; also called [VHH_1.9]-E1
- Reporter gene-assay [pM] [1]: 62.1 pM
- Kd [2]: 358 pM

B12: Polypeptide_16 (VHH)
VHH: EVQLVESGGGLVQPGGSLSLSCTASGRTFSSYAMGWFRQAPGKEREFVADIGENADNRWYAHSVKGRFTISRDNAKNTVYLQMNSLKPEDTAVYYCAADRYGVGGGAQGYYDSWGQGTQVTVSS
notes: VHH_2.16 with C-terminal His tag extension E1; also called [VHH_2.16]-E1
- Reporter gene-assay [pM] [1]: 52.4 pM
- Kd [2]: 1 pM

B13: Polypeptide_14 (VHH)
VHH: QLQLVESGGGSVQVGDSLRLSCTFSGRSFSSYAMGWFRQAPGKEREFVADIGENADNTWYAHSVKGRFTISRDNAKNTVYLQMNSLKPEDTAVYYCAADSYGVGGGAQGYYDSWGQGTQVTVSS
notes: VHH_2.14 with C-terminal His tag extension E1; also called [VHH_2.14]-E1
- Reporter gene-assay [pM] [1]: 72.9 pM
- Kd [2]: 396 pM

B14: Compound 14 (VHH)
VHH: EVQLVESGGGLVQPGGSLKLSCTTSGRRFSEYAVGWFRQAPGKEREFVADIGEQAENTWYAESVLGRFTISRDDAKNTVYLEMDGLKPEDTAVYYCAADKYGVGGNAQGYYDSWGQGTQVTVSS
modifications: Chem. 24 (C16 fatty acid substituent) on Cys in position 4 of the extension (SEQ ID NO: 161)
- IC50 (nM) mean, STAT3-luc reporter gene assay [6]: 0.041 nM
- Relative IC50 to Polypeptide_29 [6]: 1.1 fold

B15: Compound 16 (VHH)
VHH: EVQLVESGGGLVQPGGSLKLSCTTSGRRFSEYAVGWFRQAPGKEREFVADIGEQAENTWYAESVLGRFTISRDDAKNTVYLEMDGLKPEDTAVYYCAADKYGVGGNAQGYYDSWGQGTQVTVSS
modifications: Chem. 27 (C20 fatty acid substituent) on Cys in position 4 of the extension (SEQ ID NO: 161)
- IC50 (nM) mean, STAT3-luc reporter gene assay [6]: 0.054 nM
- Relative IC50 to Polypeptide_29 [6]: 1.6 fold

B16: Compound 17 (VHH)
VHH: EVQLVESGGGLVQPGGSLKLSCTTSGRRFSEYAVGWFRQAPGKEREFVADIGEQAENTWYAESVLGRFTISRDDAKNTVYLEMDGLKPEDTAVYYCAADKYGVGGNAQGYYDSWGQGTQVTVSS
modifications: Chem. 24 (C16 fatty acid substituent) on Cys in position 4 and on Cys in position 6 of the extension (SEQ ID NO: 162)
- IC50 (nM) mean, STAT3-luc reporter gene assay [6]: 0.04 nM
- Relative IC50 to Polypeptide_29 [6]: 1 fold

B17: Compound 15 (VHH)
VHH: EVQLVESGGGLVQPGGSLKLSCTTSGRRFSEYAVGWFRQAPGKEREFVADIGEQAENTWYAESVLGRFTISRDDAKNTVYLEMDGLKPEDTAVYYCAADKYGVGGNAQGYYDSWGQGTQVTVSS
modifications: Chem. 26 (C18 fatty acid substituent) on Cys in position 4 of the extension (SEQ ID NO: 161)
- IC50 (nM) mean, STAT3-luc reporter gene assay [6]: 0.046 nM
- Relative IC50 to Polypeptide_29 [6]: 1.3 fold

B18: Polypeptide_8 (VHH)
VHH: QVQLVESGGGLVQPGGSLRLSCAASGFTFSSYWMYWVRQAPGKGLEWVSGINTGGSTPDYADSVKGRFTISRDNAKNTLYLQMNSLRPEDTAVYYCAADTPRSFRLNHYSPLGQGTQVTVSS
notes: VHH_2.8 with C-terminal His tag extension E1; also called [VHH_2.8]-E1
- Reporter gene-assay [pM] [1]: 36.8 pM
- Kd [2]: 816 pM

B19: Polypeptide_5 (VHH)
VHH: QLQLVESGGGLVQPGGSLRLSCAASGFTFSNYWMYWVRQAPGKGLEWVSGINTGGSTPDYADSVKGRFTISRDNAKNTLYLQMNSLRPEDTAVYYCAADTPRVFRLDHYSPLGQGTQVTVSS
notes: VHH_2.5 with C-terminal His tag extension E1; also called [VHH_2.5]-E1
- Reporter gene-assay [pM] [1]: 23.2 pM
- Kd [2]: 696 pM

B20: Polypeptide_2 (VHH)
VHH: EVQLVESGGGLVQPGGSLRLSCAASGFTFSNYWMYWVRQAPGKGLEWVSGINTGGSTPDYADSVKDRFTISRDNAKNTLYLQMNSLRPADTAVYYCAADTPRSFRLNHYAPLGQGTQVTVSS
notes: VHH_2.2 with C-terminal His tag extension E1; also called [VHH_2.2]-E1
- Reporter gene-assay [pM] [1]: 20.7 pM
- Kd [2]: 1310 pM

B21: Polypeptide_18 (VHH)
VHH: EVQLVESGGGLVQPGGSLRLSCAASGFTFSNYWMYWVRQAPGKGLEWVSGINTGGSTPDYADSVKGRFAISRDNAKNTLYLQMNSLRPEDTAVYYCAADTPRVFRLDHYSPLGQGTQVTVSS
notes: VHH_1.16 with C-terminal His tag extension E1; also called [VHH_1.16]-E1
- IC 50 (nM), reporter gene assay, 0% HSA [3]: 0.02 nM
- IC 50 (nM), reporter gene assay, 1% HSA [3]: 0.02 nM
- Reporter gene-assay [pM] [1]: 18.5 pM
- Kd [2]: 705 pM

B22: Polypeptide_9 (VHH)
VHH: QVQLVESGGGLVQPGGSLRLSCAASGFTFSNYWMYWVRQAPGKGLEWVSGIDTRGSTPDYADSVKGRFTISRDNAKSTFYLQMNSLRPEDTAVYYCATDTPRSFRLYHYVPLGQGTQVTVSS
notes: VHH_2.9 with C-terminal His tag extension E1; also called [VHH_2.9]-E1
- Reporter gene-assay [pM] [1]: 33.7 pM
- Kd [2]: 903 pM

B23: Polypeptide_12 (VHH)
VHH: QVQLVESGGGLVQAGGSLRLSCTTSGRTFSSYAMAWFRQAPGKDREFVADIGENSDNIWYADSVKGRFTISRDNAKNTILLQMNSLKPEDTAVYYCAADSYGVGGGKPEYYDSWGQGAQVTVSS
notes: VHH_2.12 with C-terminal His tag extension E1; also called [VHH_2.12]-E1
- Reporter gene-assay [pM] [1]: 77.4 pM
- Kd [2]: 1 pM

B24: Polypeptide_6 (VHH)
VHH: QVQLQESGGGLVQAGGSLRLSCTTSGRTFSDYAMAWFRQAPGKDREFVADIGTNSENTWYAESVKGRFTISRDNTKNTIYLQMNSLKPEDTAVYYCAADSYGVGGGKQEYYDSWGQGAQVTVSS
notes: VHH_2.6 with C-terminal His tag extension E1; also called [VHH_2.6]-E1
- Reporter gene-assay [pM] [1]: 73.4 pM
- Kd [2]: 1520 pM

B25: Polypeptide_11 (VHH)
VHH: EVQLVESGGGLVQAGGSLRLSCTASGRSFSSYAMGWFRQAPGKEREFVADIGVNPDNTWYADSAKGRFTISRDNAKNTMYLQMNSLKPEDTAVYYCAADSYGVGGGAERYYDSWGQGTQVTVSS
notes: VHH_2.11 with C-terminal His tag extension E1; also called [VHH_2.11]-E1
- Reporter gene-assay [pM] [1]: 98.2 pM
- Kd [2]: 70.1 pM
